Measurements reported in paper PMC3398199 (Molecular Cell, 2012).

Molecular target: His-tagged human recombinant full-length NEMO (human, UniProt Q9Y6K9 1-419)
Test: SEC

Chain of His-tagged human recombinant full-length NEMO (Q9Y6K9 whole entry): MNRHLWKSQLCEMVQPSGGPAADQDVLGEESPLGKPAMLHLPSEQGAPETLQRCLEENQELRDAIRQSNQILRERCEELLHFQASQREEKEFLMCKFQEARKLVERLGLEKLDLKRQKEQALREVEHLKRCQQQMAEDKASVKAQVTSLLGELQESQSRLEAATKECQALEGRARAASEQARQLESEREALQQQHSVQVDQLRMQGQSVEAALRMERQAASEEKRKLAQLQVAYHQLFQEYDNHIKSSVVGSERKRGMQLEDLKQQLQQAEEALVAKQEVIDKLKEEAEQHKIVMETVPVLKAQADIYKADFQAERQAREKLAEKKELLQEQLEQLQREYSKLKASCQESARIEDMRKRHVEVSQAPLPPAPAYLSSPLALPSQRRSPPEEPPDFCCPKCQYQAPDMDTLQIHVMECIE

B1: recombinant FL-human IκBα (natural protein, UniProt P25963 1-317, looked up)
chain: MFQAAERPQEWAMEGPRDGLKKERLLDDRHDSGLDSMKDEEYEQMVKELQEIRLEPQEVPRGSEPWKQQLTEDGDSFLHLAIIHEEKALTMEVIRQVKGDLAFLNFQNNLQQTPLHLAVITNQPEIAEALLGAGCDPELRDFRGNTPLHLACEQGCLASVGVLTQSCTTPHLHSILKATNYNGHTCLHLASIHGYLGIVELLVSLGADVNAQEPCNGRTALHLAVDLQNPDLVSLLLKCGADVNRVTYQGYSPYQLTWGRPSTRIQQQLGQLTLENLQMLPESEDEESYDTESEFTEFTEDELPYDDCVFGGQRLTL
**Q.** Does B1 bind?
**A.** Result: binds
